For the assay, the target named is HLA-A*02:01 (Homo sapiens, UniProt P04439, D140Y/D185E/D98H/E176V/E277Q/G131W/G231S/I119V/I121R/I166T/I218V/L300P/L318F/N151K/N90K/P208A/P217A/Q86G/Q94H/R138H/R169H/T345S). The assay can be described thus: MHC binding assay: UV-ligand exchange and β2m ELISA (peptide exchange yield, Table 7). The settings on record: binding of HLA-class I restricted peptides to HLA-A*02:01, UV-ligand exchange. The text has this:
Candidate peptides for T cell based therapies according to the present invention were further tested for their MHC binding capacity (affinity). The individual peptide-MHC complexes were produced by UV-ligand exchange, where a UV-sensitive peptide is cleaved upon UV-irradiation, and exchanged with the peptide of interest as analyzed. Only peptide candidates that can effectively bind and stabilize the peptide-receptive MHC molecules prevent dissociation of the MHC complexes. To determine the yield of the exchange reaction, an ELISA was performed based on the detection of the light chain (β2 m) of stabilized MHC complexes. The assay was performed as generally described in Rodenko et al. (Rodenko et al., 2006).
96 well MAXISorp plates (NUNC) were coated over night with 2 ug/ml streptavidin in PBS at room temperature, washed 4× and blocked for 1 h at 37° C. in 2% BSA containing blocking buffer. Refolded HLA-A*02:01/MLA-001 monomers served as standards, covering the range of 15-500 ng/ml. Peptide-MHC monomers of the UV-exchange reaction were diluted 100 fold in blocking buffer. Samples were incubated for 1 h at 37° C., washed four times, incubated with 2 ug/ml HRP conjugated anti-β2 m for 1 h at 37° C., washed again and detected with TMB solution that is stopped with […]. Absorption was measured at 450 nm. Candidate peptides that show a high exchange yield (preferably higher than 50%, most preferred higher than 75%) are generally preferred for a generation and production of antibodies or fragments thereof, and/or T cell receptors or fragments thereof, as they show sufficient avidity to the MHC molecules and prevent dissociation of the MHC complexes.
In general terms: An ELISA detects its analyte on a solid surface through an enzyme-linked reagent.

With “12 (RLLDPKTIFL; listed as Homo sapiens) [compound 12]”, the “Peptide exchange (MHC class I binding score, peptide exchange yield)” value (“Peptide exchange” for short) was “+++ (≥50% = +++)”. Regarding “267 (YLLDMPLWYL; listed as Homo sapiens) [compound 267]”, the “Peptide exchange” value was “+++ (≥50% = +++)”.

For the substance “224 (LLFDWSGTGRADA; listed as Homo sapiens) [compound 224]”, the “Peptide exchange” value was “+++ (≥50% = +++)”.

For “95 (KLIDEDEPLFL; listed as Homo sapiens) [compound 95]”, the “Peptide exchange” value is on record as “+++ (≥50% = +++)”. As for “125 (AALEVLAEV; listed as Homo sapiens) [compound 125]”, the “Peptide exchange” value is listed as “+++ (≥50% = +++)”. As to “133 (FLDGRPLTL; listed as Homo sapiens) [compound 133]”, the “Peptide exchange” value was “++ (≥20% = ++)”. In the case of “158 (YLDPLWHQL; listed as Homo sapiens) [compound 158]”, the “Peptide exchange” value is “+++ (≥50% = +++)”.

Turning to “215 (QIADIVTSV; listed as Homo sapiens) [compound 215]”, the “Peptide exchange” value is “++ (≥20% = ++)”.

For “31 (GLLETTGLLAT; listed as Homo sapiens) [compound 31]”, the “Peptide exchange” value was “+++ (≥50% = +++)”. “140 (FLDSQITTV; listed as Homo sapiens) [compound 140]”: the “Peptide exchange” value is given as “+++ (≥50% = +++)”. On to “162 (GLLGNLLTSL; listed as Homo sapiens) [compound 162]”, for which the “Peptide exchange” value was “+++ (≥50% = +++)”.

Consider “40 (KIWEELSVLEV; listed as Homo sapiens) [compound 40]”, for which the “Peptide exchange” value is “+++ (≥50% = +++)”. Regarding “250 (LMQDSRLYL; listed as Homo sapiens) [compound 250]”, the “Peptide exchange” value was “+++ (≥50% = +++)”. In the case of “109 (ILGSFELQL; listed as Homo sapiens) [compound 109]”, the “Peptide exchange” value was “+++ (≥50% = +++)”. For the substance “174 (ALYSGDLHAA; listed as Homo sapiens) [compound 174]”, the “Peptide exchange” value was “++ (≥20% = ++)”. The result for “38 (VLQQESNFL; listed as Homo sapiens) [compound 38]” reads “++ (≥20% = ++)”; that for “212 (MTLSEIHAV; listed as Homo sapiens) [compound 212]”, “++ (≥20% = ++)”.

Consider “72 (VLSTRVTNV; listed as Homo sapiens) [compound 72]”, for which the “Peptide exchange” value was “++ (≥20% = ++)”. On to “87 (KLLSLLEEA; listed as Homo sapiens) [compound 87]”, for which the “Peptide exchange” value is on record as “+++ (≥50% = +++)”. The result for “259 (GPGIFPPPPPQP; listed as Homo sapiens) [compound 259]” reads “+ (≥10% = +)”; that for “178 (SLVSWQLLL; listed as Homo sapiens) [compound 178]”, “++++ (≥75% = ++++)”. For the substance “192 (TLLPSSGLVTL; listed as Homo sapiens) [compound 192]”, the “Peptide exchange” value was “++ (≥20% = ++)”. The result for “24 (KVWSDVTPL; listed as Homo sapiens) [compound 24]” reads “+++ (≥50% = +++)”.

“111 (AQLEGKLVSI; listed as Homo sapiens) [compound 111]”: the “Peptide exchange” value is “+++ (≥50% = +++)”. The result for “77 (ALYGNVQQV; listed as Homo sapiens) [compound 77]” reads “+++ (≥50% = +++)”; that for “112 (ILAQDVAQL; listed as Homo sapiens) [compound 112]”, “+++ (≥50% = +++)”. The result for “128 (SILTNISEV; listed as Homo sapiens) [compound 128]” reads “++ (≥20% = ++)”. In the case of “55 (HLFDKIIKI; listed as Homo sapiens) [compound 55]”, the “Peptide exchange” value was “+++ (≥50% = +++)”. On to “105 (AMLASQTEA; listed as Homo sapiens) [compound 105]”, for which the “Peptide exchange” value is on record as “++ (≥20% = ++)”. The result for “145 (ALEEKLENV; listed as Homo sapiens) [compound 145]” reads “+++ (≥50% = +++)”. For “236 (KMSELQTYV; listed as Homo sapiens) [compound 236]”, the “Peptide exchange” value is given as “+++ (≥50% = +++)”. For the substance “270 (TLLTFFHEL; listed as Homo sapiens) [compound 270]”, the “Peptide exchange” value was “+++ (≥50% = +++)”. As to “41 (IVTEIISEI; listed as Homo sapiens) [compound 41]”, the “Peptide exchange” value is “+++ (≥50% = +++)”. “74 (GLAFLPASV; listed as Homo sapiens) [compound 74]”: the “Peptide exchange” value is “++ (≥20% = ++)”. As for “5 (GLVDIMVHL; listed as Homo sapiens) [compound 5]”, the “Peptide exchange” value is recorded as “+++ (≥50% = +++)”. For “79 (TVLEEIGNRV; listed as Homo sapiens) [compound 79]”, the “Peptide exchange” value is “++ (≥20% = ++)”. As for “176 (VQSGLRILL; listed as Homo sapiens) [compound 176]”, the “Peptide exchange” value is reported as “++ (≥20% = ++)”. “146 (VVAAHLAGA; listed as Homo sapiens) [compound 146]”: the “Peptide exchange” value is listed as “++ (≥20% = ++)”. With “47 (GLNGFNVLL; listed as Homo sapiens) [compound 47]”, the “Peptide exchange” value is given as “+++ (≥50% = +++)”.

As for “124 (ALLLRLFTI; listed as Homo sapiens) [compound 124]”, the “Peptide exchange” value was “++ (≥20% = ++)”. On to “116 (ALLSSVAEA; listed as Homo sapiens) [compound 116]”, for which the “Peptide exchange” value was “++ (≥20% = ++)”. In the case of “10 (QLIEKNWLL; listed as Homo sapiens) [compound 10]”, the “Peptide exchange” value was “+++ (≥50% = +++)”. For the substance “131 (SLYPHFTLL; listed as Homo sapiens) [compound 131]”, the “Peptide exchange” value is “+++ (≥50% = +++)”. As to “222 (LLTGVFAQL; listed as Homo sapiens) [compound 222]”, the “Peptide exchange” value is “++ (≥20% = ++)”. As to “273 (SLNKQIETV; listed as Homo sapiens) [compound 273]”, the “Peptide exchange” value is given as “++ (≥20% = ++)”.

For “269 (GLLDCPIFL; listed as Homo sapiens) [compound 269]”, the “Peptide exchange” value is “++++ (≥75% = ++++)”. As to “286 (FLTEMVHFI; listed as Homo sapiens) [compound 286]”, the “Peptide exchange” value is given as “+++ (≥50% = +++)”. “103 (YLADTVQKL; listed as Homo sapiens) [compound 103]”: the “Peptide exchange” value is “++ (≥20% = ++)”. With “37 (QIVELIEKI; listed as Homo sapiens) [compound 37]”, the “Peptide exchange” value is on record as “++ (≥20% = ++)”. The result for “262 (LLLEAVWHL; listed as Homo sapiens) [compound 262]” reads “+++ (≥50% = +++)”; that for “101 (SLLEVNEASSV; listed as Homo sapiens) [compound 101]”, “+++ (≥50% = +++)”; that for “284 (KLMDPGSLPPL; listed as Homo sapiens) [compound 284]”, “++ (≥20% = ++)”.

Consider “199 (SVADLAHVL; listed as Homo sapiens) [compound 199]”, for which the “Peptide exchange” value was “++ (≥20% = ++)”. For the substance “245 (ALLEEEEGV; listed as Homo sapiens) [compound 245]”, the “Peptide exchange” value is on record as “++ (≥20% = ++)”.

For the substance “98 (FVQEKIPEL; listed as Homo sapiens) [compound 98]”, the “Peptide exchange” value is recorded as “+++ (≥50% = +++)”. For “25 (LLWGHPRVALA; listed as Homo sapiens) [compound 25]”, the “Peptide exchange” value is listed as “+++ (≥50% = +++)”. Turning to “44 (AVFNLVHVV; listed as Homo sapiens) [compound 44]”, the “Peptide exchange” value is reported as “+++ (≥50% = +++)”.
